The values below come from publication PMC11879457 (Nucleic Acids Research, 2025).

The data set “SDS-PAGE” deals with the molecule itself. As to the kind of experiment: SDS-PAGE.
The data set “SEC” deals with the molecule itself. As to the kind of experiment: SEC. A general note: SEC sorts molecules by how far they enter the pores of the column.
Another data set concerns the target T1, YdaT (Rac prophage) (Escherichia coli K-12 MG1655 (Rac …, UniProt P76064 1-140)).
T1 sequence: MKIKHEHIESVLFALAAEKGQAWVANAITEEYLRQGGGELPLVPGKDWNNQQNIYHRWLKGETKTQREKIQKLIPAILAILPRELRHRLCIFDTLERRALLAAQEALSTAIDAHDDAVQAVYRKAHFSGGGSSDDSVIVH
As to the kind of experiment: DNase I footprinting.

The next data set concerns the target T2, YdaTmut (H56A R57A) (Escherichia coli K-12 MG1655 (Rac …, UniProt P76064 1-140, H56A;R57A)).
T2 sequence: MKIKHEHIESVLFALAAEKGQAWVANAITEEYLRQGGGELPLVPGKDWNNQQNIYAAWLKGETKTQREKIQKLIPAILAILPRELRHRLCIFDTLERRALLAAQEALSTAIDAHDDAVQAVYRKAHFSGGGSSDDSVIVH
As to the kind of experiment: DNase I footprinting.

A word on the stoichiometry N: it is the number of molecules, sites or subunits per partner or assembly.

B1: N-terminally 6x His-tagged YdaT, wild type (Rac prophage transcription factor) (natural protein, E. coli K-12 (Rac prophage), UniProt P76064 1-140, looked up)
chain: MKIKHEHIESVLFALAAEKGQAWVANAITEEYLRQGGGELPLVPGKDWNNQQNIYHRWLKGETKTQREKIQKLIPAILAILPRELRHRLCIFDTLERRALLAAQEALSTAIDAHDDAVQAVYRKAHFSGGGSSDDSVIVH
As to B1, the “stoichiometry N” value in “SDS-PAGE” is 2; in “SEC”, 4.

B2: IGR footprint substrate (165 bp) (dsDNA)
DNA 1: GCGCATTACATTAGGCAATCCCTACCCTTACTGCATTAGGCACAGCCTATTGACAATTGCGTTAGGCGTCGCCTAATATTTCTGTGTGTTTTTGGAGTTCATTCGATGAAAAAAGAGAACTATTCATTCAAGCAAGCTTGTGCTGTTGTCGGTGGGCAATCAGCA
DNA 2: TGCTGATTGCCCACCGACAACAGCACAAGCTTGCTTGAATGAATAGTTCTCTTTTTTCATCGAATGAACTCCAAAAACACACAGAAATATTAGGCGACGCCTAACGCAATTGTCAATAGGCTGTGCCTAATGCAGTAAGGGTAGGGATTGCCTAATGTAATGCGC
In the case of B2, the binding result is given as “binds” in the data set with YdaT (Rac prophage) and “no binding” with YdaTmut (H56A R57A).
